# How the values were obtained:
# Conditions in all cases: Pseudomonas putida
# [1] = substrate: O=C([O-])[C@H]([O-])c1ccccc1.[Mg+2]
# Description: Michaelis-Menten constant of mandelate racemase was determined at pH 7.5
# [2] = substrate: O=C([O-])[C@H]([O-])c1ccccc1.[Mg+2]; remark: listed apart in the source
# Description: Michaelis-Menten constant of mandelate racemase was determined at pH 8.7
# [3] = substrate: O=C([O-])[C@H]([O-])c1ccccc1.[Mg+2]; remark: listed apart in the source
# Description: Michaelis-Menten constant of mandelate racemase was determined at pH 6.3
protein,measurement,setting,value
"Mandelate racemase (Pseudomonas putida), P11444 (protein) MSEVLITGLRTRAVNVPLAYPVHTAVGTVGTAPLVLIDLATSAGVVGHSYLFAYTPVALKSLKQLLDDMAAMIVNEPLAPVSLEAMLAKRFCLAGYTGLIRMAAAGIDMAAWDALGKVHETPLVKLLGANARPVQAYDSHSLDGVKLATERAVTAAELGFRAVKTKIGYPALDQDLAVVRSIRQAVGDDFGIMVDYNQSLDVPAAIKRSQALQQEGVTWIEEPTLQHDYEGHQRIQSKLNVPVQMGENWLGPEEMFKALSIGACRLAMPDAMKIGGVTGWIRASALAQQFGIPMSSHLFQEISAHLLAATPTAHWLERLDLAGSVIEPTLTFEGGNAVIPDLPGVGIIWREKEIGKYLV",Km,[1],440 µM
same,Km,[2],2020 µM
same,Km,[3],950 µM

# Source: ChEMBL document CHEMBL1141065, “Inhibition of mandelate racemase by the substrate-intermediate-product analogue 1,1-diphenyl-1-hydroxymethylphosphonate” (Bioorg Med Chem Lett, 2005)
